Reference: the NTF2 design screens of Basanta et al. (2020)

Experiment: protease stability score; higher = more stable; yeast display proteolysis, trypsin and chymotrypsin;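 further: relative to predicted unfolded state with 0 unfolded-like and 1 meaning tenfold more protease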

Row | Sequence | protease stability score
1 | DEEKKEIQKAVDLMRHLLVTGDENTLHHLLDPNVRLIVGDKFFHGREELIRVWSEEIESMGFDHVEMHVRHVRVIGDKADVQMEIRFDVNGREHSREFRVRLRKIDGQWVIKSIEIR | 2.15
2 | DEEKKEQRHFLKKLADSIATGDEESLEKMVDPNAKSVVNGVEQHGMELMVENLREWLERLGVTKISFHEKRFRLIGNKLEVDGTIEVNGKKFESHFIVEKVDGQWRIREIRLH | 0.931
3 | DEEKKEVNRIFELWARLFETGDEDSIHRLLDPNARLEVNGQEIHGRHNISRTFLEFKERFKGIKIELILREVRVIGDKVHIHSELRVNINGREESFETDIDLVVIDGKLHSFRFHVH | 2.48
4 | DEEKKFIHYLAHLLIELILTGDEDTFEKLADPDVRLSIFAENHELHWHGREEVLRELIHWTRRVDHIHMKLDHSRIINGKSHMDGNLVDIQGDKKIEKKVTVILVVVNGKVKRIEIWIG | 1.47
5 | DEEKKFYIKLFELFWRAWLTGNEQFLLEMADPNVKVEYTYNGRDVRTHGRETMYTFLHEILRYLGVKHSRLRRDEFQGDKVHLDVEEHFNGRTVKTLIIIDVVDGRLEIDKFHTT | 0.705
6 | DEEKKKFEHWVKLVIHALLTGDEKHLNDMADPNVKVRSVFNGRHVELHGRENEHRWLEKLRKRLGVDHIEITDSVIQGDKVEIDSRYIQGDKEFKSSIHIVVVNGRTHENEFIFH | 1.1
7 | DEEKKLAHKIARILMDLFLTGNEEVWKELMDPHVKFEIGDFIDHGWEAVKRYYEVLGFDHIQETDLESIVIFENHVILHIRIHGEVNGRQVDTTVTLFIEKINGKWYIRTIRIH | 2.5
8 | DEEKKLMLESMKQTLDKIFTGDFDSTAEYLDPHARYIIGDKTLHGMERWKEFLDRFDHVHIHDVKLHSVRIIDGVAILDGRIDTEIIINGVRIRETVEVQIVIVKVNGRWKDERVEFK | 0.13
9 | DEEKKLSDFAFRLLEENLRTGNEDDIRRYADPSVKIEVGDKTIHGMEAVSRVITEWRVHDLKIEREEIQGNKVHIDSNIDGQVGEKREHSLLILIMVKVNGRWVIKSIRIH | 0.386
10 | DEEKKLYHHIWDRLRRALETGNEEELHKLADPDVRVIIGDKHFHGRDELYRLTEEIRVVITEIRLHDKDHQGDKVILDVEERVNVQVDGKETEYRFRSTLYFVKINGRWTLRRIELK | 1.52
11 | DEEKKNIERLTEILAHVIRTGDEESWERMMDPNARATQGDKVMVGRDLLEHLWRRIDVIDHVRLEPKHVHRQGDKIHIDVENEVHGTVNGVKISEKHKEILVIYKFDGRWHFHSIEIT | 0.064
12 | DEEKKQVKDMMELYFRLFVTGNEEILTHLADPDTRIEIDGVSRVGMEEFKRMLEEYLKRLGADHIELRHWDIKFFNGRAINRLHIHIHYGDKSEDVRVTLILEKIDGRWRNRSEHREVG | 0.771
13 | DEEKKSSDIAIHESLRVLKTGDEHDISEMMDPHVRIDINGREIIGMELASEIHHEIMNRIKNVRIEVKDRKLVNGQIILRGELRWNGQTVELEVTLKKINGKWWMESLHVR | 0.606
14 | DEEKKVAMELAILLFHLWLTGDEETERRLADPDTRMDVDGKDIIGREELSKVWERILKEMRFDRWEVDRVDVVNGQVHLHGHIRGKYNGKEETREIEITINIVNGRLKSVHFNLR | 1.87
15 | DEEKKVAQTFLELLYRAIHTGDEDEIRRMMDPNYRMEINGKEFHGREDIVHRLVRIEKHLGFKHFHIKDMRTVGDKIDLHTEVIIGDFRWDVHIHIEKVNGRWLQTERRIE | 0.521
16 | DEEKNLIIELVHLFLVAFWTGNEELLRHLADPDVRFEIDGREHHGREELEKHLEHWWMKIEHIEEKEIRVIDGRVHIDGHVRGTLIINGRENRISYDVEIHAEVIDGRFKYVKVKQK | 2.48
17 | DEEKQDMDTAIKIFVEEYKTGDEENLLRNMDPEARVRQGDKHFHGREEVWKFWRRLFHDAGLDNVNVELRHITSQGNKIEVRGVLRIGDKELDVEFILKKVDGRWLIKFILFR | 1.91
18 | DEEKRDAREFLHLLFHAMITGDEDLVRHLADPHVKLDVNGRELHGWELFLTWFKRLLEEIRLTDIDVHHIELQGNKIILDTRLHVRVGDKEVDIHTEFHVVKVNGKWRLKTMRTE | 2.61
19 | DEEKRDVDDAKEVWDRIFKTGDEHQLERNFDPNVRQHIDGREHVGREEFRKEFHKILLLLGVKHLRIEFHDEEYQGDKIILRGTLFFEVNGRIEIWIVTIIARKVNGQWLVHTVHHN | 0.425
20 | DEEKRFHHKLLRLFLESFLTGDWRLWYKLADPNARFHAPNHESHGREEVVEMIFKWLKQYDHVEIRIHDVRYYNGQIRMDVELHFRQGDKETSTKLDLILIVVDGRITEVHFDVR | 0.916
21 | DEEKRHDEKLVEDFIHNVLTGDWEKLLRNMDPHARIHVDVGNFREERVGREDWIETLARRKNARFHIESYRIYNGQVDMEVRIEQGDKEHKFKLIIKFVDGVVRSISMQVE | 1.26
22 | DEEKRHHDEWRQFFLDSIKTGNWFELLKMIDPNTKILINGKEFHGRDAMHHFLTELRRRVDHLERFDIHHIDIQGNKAFDDTRLEGRINGVETHIDLLLISTKVNGVWYLKSVELR | 2.13
23 | DEEKRHSDEIIEEWVRSLITGDEKRIRELHDPTTLLNNENEKYHGMEIATELRRRIRENMGIKHSEVRVHDIEWQGDKITIYGRLILRFNGKEVEHELLIVATKINGRWVLRSMRIE | 1.48
24 | DEEKRLLEEAARHMVDSWRTGDEEVIERMMDPHDKLILYINGVNFDLHGREIVSRWIKEELDEIRIRINVEDIKVFNGVAFVDGELRVEINGREKRVKEEIILFIIDGRLKSHEIRRH | 1.23
25 | DEEKRRASELIIHLWHNFLTGNEDRFRELFDPNVKAKLDVGDKSVDHIGRDHVLDWLRLVRHEIRIHHYEHKRERVYGDKWESDGHVDGEFNGRRTETHFEIILVIIDGKLHFLILNFH | -0.076

Row | Sequence | protease stability score
26 | DEEKRRSHELADLWWEMLETGDWDRTKNLMDPDTRLHIGDKEDHGMENFYRFRKDFESQFPNMRIELKSHRVQGDFFEIKGKINFNGRLVEAEIRVKIVDGRLKEIHVHIK | 0.821
27 | DEEKTIHNHLMELVVRAFLTGDEELWSNLADPDTKEIIDGKTNVGREEVAKFWKDLVHKFKNARWHITIKRVDVIDGQVRQNSHLEIRYGDKHFHLETEDHLYVINGRLKQFEFRVN | 1.18
28 | DEELEMLRRFWEDLLHSAKTGDEELWERLADPNVRVIINGKLFHGRELASHALRELFERVDVIKDVKITDEKRQGDKIHLDIRVHNHYNGKFEDNDLHIVLVKVDGKWFLKSVEFR | 2.12
29 | DEELHHQERLLREFLHAEFTGDEDKLRHLADPRTRSDLEFENVEIVLHGMDEHVKWWEELGFKIDEMRISRIDVVGNFIILDTRVRGHINGQETHFEHHIIINTINGKIHSIRVHTK | 0.735
30 | DEELKALEDLSKKEIEAHLTGDEDTLVQLADPNMKILYNGREFHGWNVWKKISSKMIEEMRLRRVELEHVHVINGQIDSHGILDVEVNGRRVKERMHIVMLKVNGRWLIHSVEYR | 1.27
31 | DEELNEWEEWMRRAMKADETGDEDTVTHMLDPNVKFDIDGVELVGREEFIRFFRELRISFHHFKFDHIRDINGRVRVEGTVHLEIIIGEFRHRDDRRTERIELKINGRWYIHSMKIG | 1.18
32 | DEEMQLAEEMSRKFLHNWHTGDWRIMSHLIDPDVKIIIVVGDKRIELHGRENFVKEIIRWLHHLRETDRRVDHLRIQGDKAHVRVTVHVRYGDKTMDLDEDIRILVVNGKIHSIEIIQV | 1.02
33 | DEENDLMLEMAFKFMHDWLTGDFDKETKLADPDVKYDVGEFRFHGREEVTKWLEDMERSLGIDHQFLNIHDLKVQGDKVHIKGELVLIVNGRKETRRVDLHFEIVDGRMRKVTIEKR | 1
34 | DEENEHAKHLMRELIKSIITGDEEMIDHLADPNMRLRVGDKEWHGREEIQHWLRRLVEEARIHDVELTSVRTIGDKVILDTRVDIKQGDKRKIITLIIIVQKFDGRWIIEEIRIH | 2.57
35 | DEENEHSEKISEEVLHALHTGDWNRLAHLADPHTLLIIEYGDKEIVNHGWEVFVKWILDVFRKVKNIKVHIRDSKVIGDKIHLDVEIHFNGRTTTVHIDITIIDGRLHSIHINHK | 1.8
36 | DEENEILRELHRELVEAWLTGDEELLRRLHDPDVRVHIGDKDLVGMEQMIEDIRFWLRRFDHLRIHIHRVRAINGVIHVDGELQLFQGDKSIRHQVIIELEVVNGRIKNTKFSTI | 1.4
37 | DEENERVHQALRDWRHIHRTGDEESTRHNMDPNARLDVNGVEVHGMEKVSEMFVELRIEHLHLERVHTQGEKVEVHTHVEVRQGDKRQEVKVIIFYIKINGRWFVERFEIH | 0.85
38 | DEENHHTREIFKMTLKEVFTGNEEMTTRLLDPHVRVQVGDKTIHGWKHFTHIFFRLRHEFGVDHVQLRHLEIIGNKAVIHFSVYVGEWTYEFTIHALKVNGRWVLESLEVHQI | 1.5
39 | DEENKHLKEIARRFVEDWETGDEDSLKHMLDPHARVVINGVEVHGREEIIKLFREIFHHIRIDHITVNTVITVNGVAHSHIHIRVDINGQERRHNTELIFVFVDGQVSQIKFETE | 1.24
40 | DEENKSMEEMIRLLTEALRTGDFELIHHLADPRMRILIGDKELHGWESWAQFVVKLGVKHTRIQIDDFRIIDGRINLHTHMEIDIDGRRTSSHTHMETIKVDGRWLITVLKIR | 1.1
41 | DEENKVLEHMIRLIHHDRSTGDEKVLLKLFDPHARFIYHYGDKEIHLHGRKEITDLLVKLHRHIRVDRLHIDHWEFHGDKMHIDHTTRMNVNGREMETRIDLIITIIDGVIHSIEIRQR | 1.19
42 | DEENNIVKLLFHLYVRAIETGDWKTLEKLADPNYRTIFDGKDLHGREHYMRWVRELRVEDIKLNHIHMQGDKLSIDGEIDVRVGDKETRFEVHIIAEKINGRWILRSSIID | 1.82
43 | DEEQEILKEMAKEILHMLQTGDWKRFLELADPNVKNIVNGREVHGREIVVEYIRKMGIDHHILHDVHIQGDKIHIHGTLEVNGKRIEVEIEIVVVNGRVKMIIFILK | 2.05
44 | DEEQEIMEHILEELLRIDWTGDEHVLERLLDPNMQLEFNGVRLVGMEEVQRWLRRFLTEIRIHDFKVHDFHSFNGRLHSDVEVDFQVNGQRHITRVRLNLEVINGVVHRVEVRHE | 2.17
45 | DEEQELLLRIFERWLEFLLTGDEDTMHRLFDPDVKSRIGDFNHHGRELVLEAHQWFLKHARLKEFIRRDIHAINGRINMKGDVRVDVNGQEWEDHIRIHLVVVNGKMREIHIEEK | 1.38
46 | DEEQELTEMVFRIIKRLNETGNEEELRRNADPHVRLDWNGVHYHGREVYDHVWNMLGFEIKDTRIRDIRMQGEKIFVDGERRGNINGRTIDTRIIIIIIAVNGRMKEIVIRDL | 1.3
47 | DEEQHRMEEELRKMFEHLFTGDFKWLHKNVDPNARLDIGDKHVHGREAMVELIIRHVESLGVDHVKIRHVEVQGEKIEIRGESKVGDWKFSHHINVIVVDGVHKHFRIENR | 0.684
48 | DEEQKAADRVNQLHTESMLTGDEDEFKHLADPNTKFLINGVEFHGRDTLHRWLSEIRLHHHHFEVKHLNFYGDFVEVEGHVRLVFHVNGRRIDVSTRVRWIIEKVDGRWYVRQIHIN | 1.68
49 | DEEQKEALHFLENLVRSWITGDEETLKRLFDPHYRVHAENRELHGWEDVIHTAVRESEEIRLHHVKIEHLEFVDGQIFIHLNFDIDINGRREHVHTHVILLKINGRWILTKIEFH | 1.38
50 | DEEQNHFFESIKELTHSWRTGDEERVTKLADPNVRLEINGRDIVGMERFSKLMIELRVHDLKIHRIRVVNGKVESDIEMHIHQGDKHSVTETHIFARKVDGKWILESIRIG | 1.07
